Data taken from article PMC10351450 (Autophagy, 2023).

Biological target: Oligomeric recombinant human Aβ1-42 (human, UniProt P05067)
Assay: co-IP

B1: ATP6V0C subunit of V-ATPase from mouse brain (natural protein)
chain: MADIKNNPEYSSFFGVMGASSAMVFSAMGAAYGTAKSGTGIAAMSVMRPELIMKSIIPVVMAGIIAIYGLVVAVLIANSLTDGITLYRSFLQLGAGLSVGLSGLAAGFAIGIVGDAGVRGTAQQPRLFVGMILILIFAEVLGLYGLIVALILSTK
  binding result: binds
